The results in this text go back to US20230049732A1 (UNIVERSITY OF LOUISVILLE RESEARCH FOUNDATION, published 2023).

In test [1] the target is T1, HPV16 VLPs (human papillomavirus type 16, UniProt P03101 1-505).
T1 construct: Specificity control; also called human papillomavirus VLPs
T1 sequence: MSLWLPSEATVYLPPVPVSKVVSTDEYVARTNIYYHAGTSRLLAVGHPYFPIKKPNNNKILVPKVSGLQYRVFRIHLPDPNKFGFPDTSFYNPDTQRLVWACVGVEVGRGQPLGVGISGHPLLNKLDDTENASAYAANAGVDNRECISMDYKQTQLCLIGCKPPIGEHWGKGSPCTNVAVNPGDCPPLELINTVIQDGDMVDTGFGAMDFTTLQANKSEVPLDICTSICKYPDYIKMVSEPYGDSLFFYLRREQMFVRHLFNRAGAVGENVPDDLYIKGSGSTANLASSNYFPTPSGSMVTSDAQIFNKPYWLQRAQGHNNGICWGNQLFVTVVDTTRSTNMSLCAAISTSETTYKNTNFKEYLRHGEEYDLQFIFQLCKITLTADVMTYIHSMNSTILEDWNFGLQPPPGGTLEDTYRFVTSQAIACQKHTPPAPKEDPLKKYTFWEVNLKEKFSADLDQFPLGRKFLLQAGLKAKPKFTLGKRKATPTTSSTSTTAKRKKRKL
In words: ELISA, VLPs coated.

Test [2] addresses T1, HPV16 VLPs. In words: ELISA, intact VLPs coated, hybridoma supernatant. In general terms: In an ELISA, binding on a coated surface is turned into a signal by an enzyme label.

B1: MAb #61 (antibody, V domains shown)
VH: QVQLQQSGAELARPGASVKMSCKASGYTFTSYTMHWVKQRPGQGLEWIGYINPSSGYTNYNQKFKDKATLTADKSSSTAYMQLSSLTSEDSAVYYCARPDGYYAWFAYWGQGTLVTVSA
VL: DIQMTQSSSSFSVSLGDRVTITCKASEDIYNRLAWYQQKPGNAPRLLISGATSLETGVPSRFSGSGSGKDYTLSITSLQTEDVATYYCQQYWSTPTFGGGTKLEIK
notes: Murine hybridoma antibody, supernatant; also called antibody 61
Take B1: in the test with HPV16 VLPs [1], the binding result was “no binding”. Further, the “ELISA absorbance (405 nm)” value with HPV16 VLPs [2] stood at 0.061.

B2: MAb #19B (antibody, V domains shown)
VH: QVQLQQSGAELARPGASVKMSCKASGYTFTSYTMYWVKQRPGQGLEWIGYVNPSSGYTNYNQKFKDKATLTADKSSSTAYMQLSSLTSEDSAVYYCARHGNYRYDGYYGMDCWGQGTSVTVSS
VL: DIQMTQSSSSFSVSLGDRVTITCKASEDIYNRLAWYQQKPGNAPRLLISGATSLETGVPSRFSGSGSGKDYTLSITSLQTEDVATYYCQQYWSTPYTFGGGTKLEIK
notes: Murine hybridoma antibody, supernatant; also called antibody 19
Consider B2, for which the binding result with HPV16 VLPs [1] is reported as “no binding”. Further, the “ELISA absorbance (405 nm)” value with HPV16 VLPs [2] came to 0.015.
